{"source": "patent US10786531B2", "about": "“Mineral salt-sulfonic acid compositions and methods of use” (BMG PHARMA SPA, priority 2009, dated 2020)", "origin": "cited, not measured here", "molecules": {"B1": {"name": "lactoferrin: globular, cationic, non-heme iron-binding protein (protein, UniProt P02788 20-710, looked up)", "Lactotransferrin": "GRRRSVQWCAVSQPEATKCFQWQRNMRKVRGPPVSCIKRDSPIQCIQAIAENRADAVTLDGGFIYEAGLAPYKLRPVAAEVYGTERQPRTHYYAVAVVKKGGSFQLNELQGLKSCHTGLRRTAGWNVPIGTLRPFLNWTGPPEPIEAAVARFFSASCVPGADKGQFPNLCRLCAGTGENKCAFSSQEPYFSYSGAFKCLRDGAGDVAFIRESTVFEDLSDEAERDEYELLCPDNTRKPVDKFKDCHLARVPSHAVVARSVNGKEDAIWNLLRQAQEKFGKDKSPKFQLFGSPSGQKDLLFKDSAIGFSRVPPRIDSGLYLGSGYFTAIQNLRKSEEEVAARRARVVWCAVGEQELRKCNQWSGLSEGSVTCSSASTTEDCIALVLKGEADAMSLDGGYVYTAGKCGLVPVLAENYKSQQSSDPDPNCVDRPVEGYLAVAVVRRSDTSLTWNSVKGKKSCHTAVDRTAGWNIPMGLLFNQTGSCKFDEYFSQSCAPGSDPRSNLCALCIGDEQGENKCVPNSNERYYGYTGAFRCLAENAGDVAFVKDVTVLQNTDGNNNEAWAKDLKLADFALLCLDGKRKPVTEARSCHLAMAPNHAVVSRMDKVERLKQVLLHQQAKFGRNGSDCPDKFCLFQSETKNLLFNDNTECLARLHGKTTYEKYLGPQYVAGITNLKKCSTSPLLEACEFLRK"}}, "conditions": "animal studies", "data": [{"molecule": "B1", "values": [{"measurement": "dose well tolerated with minimum toxic effects", "result": 2000, "unit": "mg/kg/day"}]}]}
